Source: the supplement of paper PMC5998384

Experiments:
HeLa Kyoto [1] = test: solubility in G1/S (NP-40 vs SDS abundance) (log2 ratio); higher = more soluble; conditions: cell cycle stage: G1/S
HeLa Kyoto [2] = test: melting temperature (median over replicates), in situ; higher = more thermally stable
HeLa Kyoto [3] = test: solubility change mitosis vs G1/S (difference of NP-40 vs SDS log2 ratios) (log2 ratio difference); higher = more soluble in mitosis
HeLa Kyoto [4] = test: thermal stability score vs G1/S (z-score of summed log2 fold changes over temperatures); higher = more thermally stable than in G1/S
[5] = cell cycle stage: early G1 (4.5 h after nocodazole release)
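For melting temperature (median over replicates), in situ in this document: HeLa Kyoto cells synchronized by double thymidine or nocodazole block, proteins quantified by TMT10plex mass spectrometry, three independent biological replicates.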
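For solubility change mitosis vs G1/S (difference of NP-40 vs SDS log2 ratios) in this document: synchronized HeLa Kyoto cells (double thymidine block for G1/S, nocodazole release for mitosis), protein amounts in NP-40 versus SDS lysates quantified by mass spectrometry, three biological replicates.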
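For solubility in G1/S (NP-40 vs SDS abundance) in this document: HeLa Kyoto cells arrested at G1/S by double thymidine block, proteins quantified by TMT10plex mass spectrometry in mild NP-40 versus SDS extracts, three biological replicates.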
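For thermal stability score vs G1/S (z-score of summed log2 fold changes over temperatures) in this document: synchronized HeLa Kyoto cells, proteins quantified by TMT10plex mass spectrometry, three biological replicates, mitosis taken 0.5 h after nocodazole release, G1/S directly after double thymidine block.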

Substance	solubility in G1/S (log2) (HeLa Kyoto [1])	melting temperature (HeLa Kyoto [2]; cell cycle stage: G1/S) [°C]	melting temperature (HeLa Kyoto [2]; cell cycle stage: mitosis) [°C]	solubility change mitosis (log2) (HeLa Kyoto [3])	thermal stability score (HeLa Kyoto [4]; [5])	thermal stability score (HeLa Kyoto [4]; cell cycle stage: mitosis)
MNVVFAVKQYISKMIEDSGPGMKVLLMDKETTGIVSMVYTQSEILQKEVYLFERIDSQNREIMKHLKAICFLRPTKENVDYIIQELRRPKYTIYFIYFSNVISKSDVKSLAEADEQEVVAEVQEFYGDYIAVNPHLFSLNILGCCQGRNWDPAQLSRTTQGLTALLLSLKKCPMIRYQLSSEAAKRLAECVKQVITKEYELFEFRRTEVPPLLLILDRCDDAITPLLNQWTYQAMVHELLGINNNRIDLSRVPGISKDLREVVLSAENDEFYANNMYLNFAEIGSNIKNLMEDFQKKKPKEQQKLESIADMKAFVENYPQFKKMSGTVSKHVTVVGELSRLVSERNLLEVSEVEQELACQNDHSSALQNIKRLLQNPKVTEFDAARLVMLYALHYERHSSNSLPGLMMDLRNKGVSEKYRKLVSAVVEYGGKRVRGSDLFSPKDAVAITKQFLKGLKGVENVYTQHQPFLHETLDHLIKGRLKENLYPYLGPSTLRDRPQDIIVFVIGGATYEEALTVYNLNRTTPGVRIVLGGTTVHNTKSFLEEVLASGLHSRSKESSQVTSRSASRR [VPS45]	0.0246	49.6	49.9	-0.166	0.581	1.21
MNWELLLWLLVLCALLLLLVQLLRFLRADGDLTLLWAEWQGRRPEWELTDMVVWVTGASSGIGEELAYQLSKLGVSLVLSARRVHELERVKRRCLENGNLKEKDILVLPLDLTDTGSHEAATKAVLQEFGRIDILVNNGGMSQRSLCMDTSLDVYRKLIELNYLGTVSLTKCVLPHMIERKQGKIVTVNSILGIISVPLSIGYCASKHALRGFFNGLRTELATYPGIIVSNICPGPVQSNIVENSLAGEVTKTIGNNGDQSHKMTTSRCVRLMLISMANDLKEVWISEQPFLLVTYLWQYMPTWAWWITNKMGKKRIENFKSGVDADSSYFKIFKTKHD [DHRS7]	-0.297	56.6	56.6	-0.0912	-1.54	-1.34
MNYDSQQPPLPPLPYAGCRRASGFPALGRGGTVPVGVWGGAGQGREGRSWGEGPRGPGLGRRDLSSADPAVLGATMESRCYGCAVKFTLFKKEYGCKNCGRAFCSGCLSFSAAVPRTGNTQQKVCKQCHEVLTRGSSANASKWSPPQNYKKRVAALEAKQKPSTSQSQGLTRQDQMIAERLARLRQENKPKLVPSQAEIEARLAALKDERQGSIPSTQEMEARLAALQGRVLPSQTPQPAHHTPDTRTQAQQTQDLLTQLAAEVAIDESWKGGGPAASLQNDLNQGGPGSTNSKRQANWSLEEEKSRLLAEAALELREENTRQERILALAKRLAMLRGQDPERVTLQDYRLPDSDDDEDEETAIQRVLQQLTEEASLDEASGFNIPAEQASRPWTQPRGAEPEAQDVDPRPEAEEEELPWCCICNEDATLRCAGCDGDLFCARCFREGHDAFELKEHQTSAYSPPRAGQEH [ZFYVE19]	0.428	54.2	52.9	-0.237	-2.39	-1.86
MON2	-0.103	49.8	50.1	-0.108	-0.177	0.256
MPAERKKPASMEEKDSLPNNKEKDCSERRTVSSKERPKDDIKLTAKKEVSKAPEDKKKRLEDDKRKKEDKERKKKDEEKVKAEEESKKKEEEEKKKHQEEERKKQEEQAKRQQEEEAAAQMKEKEESIQLHQEAWERHHLRKELRSKNQNAPDSRPEENFFSRLDSSLKKNTAFVKKLKTITEQQRDSLSHDFNGLNLSKYIAEAVASIVEAKLKISDVNCAVHLCSLFHQRYADFAPSLLQVWKKHFEARKEEKTPNITKLRTDLRFIAELTIVGIFTDKEGLSLIYEQLKNIINADRESHTHVSVVISFCRHCGDDIAGLVPRKVKSAAEKFNLSFPPSEIISPEKQQPFQNLLKEYFTSLTKHLKRDHRELQNTERQNRRILHSKGELSEDRHKQYEEFAMSYQKLLANSQSLADLLDENMPDLPQDKPTPEEHGPGIDIFTPGKPGEYDLEGGIWEDEDARNFYENLIDLKAFVPAILFKDNEKSCQNKESNKDDTKEAKESKENKEVSSPDDLELELENLEINDDTLELEGGDEAEDLTKKLLDEQEQEDEEASTGSHLKLIVDAFLQQLPNCVNRDLIDKAAMDFCMNMNTKANRKKLVRALFIVPRQRLDLLPFYARLVATLHPCMSDVAEDLCSMLRGDFRFHVRKKDQINIETKNKTVRFIGELTKFKMFTKNDTLHCLKMLLSDFSHHHIEMACTLLETCGRFLFRSPESHLRTSVLLEQMMRKKQAMHLDARYVTMVENAYYYCNPPPAEKTVKKKRPPLQEYVRKLLYKDLSKVTTEKVLRQMRKLPWQDQEVKDYVICCMINIWNVKYNSIHCVANLLAGLVLYQEDVGIHVVDGVLEDIRLGMEVNQPKFNQRRISSAKFLGELYNYRMVESAVIFRTLYSFTSFGVNPDGSPSSLDPPEHLFRIRLVCTILDTCGQYFDRGSSKRKLDCFLVYFQRYVWWKKSLEVWTKDHPFPIDIDYMISDTLELLRPKIKLCNSLEESIRQVQDLEREFLIKLGLVNDKDSKDSMTEGENLEEDEEEEEGGAETEEQSGNESEVNEPEEEEGSDNDDDEGEEEEEENTDYLTDSNKENETDEENTEVMIKGGGLKHVPCVEDEDFIQALDKMMLENLQQRSGESVKVHQLDVAIPLHLKSQLRKGPPLGGGEGEAESADTMPFVMLTRKGNKQQFKILNVPMSSQLAANHWNQQQAEQEERMRMKKLTLDINERQEQEDYQEMLQSLAQRPAPANTNRERRPRYQHPKGAPNADLIFKTGGRRR [UPF2]	-0.245	49.6	49.7	-0.109	-0.603	-0.161
MPAPIRLRELIRTIRTARTQAEEREMIQKECAAIRSSFREEDNTYRCRNVAKLLYMHMLGYPAHFGQLECLKLIASQKFTDKRIGYLGAMLLLDERQDVHLLMTNCIKNDLNHSTQFVQGLALCTLGCMGSSEMCRDLAGEVEKLLKTSNSYLRKKAALCAVHVIRKVPELMEMFLPATKNLLNEKNHGVLHTSVVLLTEMCERSPDMLAHFRKLVPQLVRILKNLIMSGYSPEHDVSGISDPFLQVRILRLLRILGRNDDDSSEAMNDILAQVATNTETSKNVGNAILYETVLTIMDIKSESGLRVLAINILGRFLLNNDKNIRYVALTSLLKTVQTDHNAVQRHRSTIVDCLKDLDVSIKRRAMELSFALVNGNNIRGMMKELLYFLDSCEPEFKADCASGIFLAAEKYAPSKRWHIDTIMRVLTTAGSYVRDDAVPNLIQLITNSVEMHAYTVQRLYKAILGDYSQQPLVQVAAWCIGEYGDLLVSGQCEEEEPIQVTEDEVLDILESVLISNMSTSVTRGYALTAIMKLSTRFTCTVNRIKKVVSIYGSSIDVELQQRAVEYNALFKKYDHMRSALLERMPVMEKVTTNGPTEIVQTNGETEPAPLETKPPPSGPQPTSQANDLLDLLGGNDITPVIPTAPTSKPSSAGGELLDLLGDINLTGAPAAAPAPASVPQISQPPFLLDGLSSQPLFNDIAAGIPSITAYSKNGLKIEFTFERSNTNPSVTVITIQASNSTELDMTDFVFQAAVPKTFQLQLLSPSSSIVPAFNTGTITQVIKVLNPQKQQLRMRIKLTYNHKGSAMQDLAEVNNFPPQSWQ [AP1G1]	-0.225	50.3	50.1	-0.192	-1.48	0.274
MPAVSKGDGMRGLAVFISDIRNCKSKEAEIKRINKELANIRSKFKGDKALDGYSKKKYVCKLLFIFLLGHDIDFGHMEAVNLLSSNRYTEKQIGYLFISVLVNSNSELIRLINNAIKNDLASRNPTFMGLALHCIASVGSREMAEAFAGEIPKVLVAGDTMDSVKQSAALCLLRLYRTSPDLVPMGDWTSRVVHLLNDQHLGVVTAATSLITTLAQKNPEEFKTSVSLAVSRLSRIVTSASTDLQDYTYYFVPAPWLSVKLLRLLQCYPPPDPAVRGRLTECLETILNKAQEPPKSKKVQHSNAKNAVLFEAISLIIHHDSEPNLLVRACNQLGQFLQHRETNLRYLALESMCTLASSEFSHEAVKTHIETVINALKTERDVSVRQRAVDLLYAMCDRSNAPQIVAEMLSYLETADYSIREEIVLKVAILAEKYAVDYTWYVDTILNLIRIAGDYVSEEVWYRVIQIVINRDDVQGYAAKTVFEALQAPACHENLVKVGGYILGEFGNLIAGDPRSSPLIQFHLLHSKFHLCSVPTRALLLSTYIKFVNLFPEVKPTIQDVLRSDSQLRNADVELQQRAVEYLRLSTVASTDILATVLEEMPPFPERESSILAKLKKKKGPSTVTDLEDTKRDRSVDVNGGPEPAPASTSAVSTPSPSADLLGLGAAPPAPAGPPPSSGGSGLLVDVFSDSASVVAPLAPGSEDNFARFVCKNNGVLFENQLLQIGLKSEFRQNLGRMFIFYGNKTSTQFLNFTPTLICSDDLQPNLNLQTKPVDPTVEGGAQVQQVVNIECVSDFTEAPVLNIQFRYGGTFQNVSVQLPITLNKFFQPTEMASQDFFQRWKQLSNPQQEVQNIFKAKHPMDTEVTKAKIIGFGSALLEEVDPNPANFVGAGIIHTKTTQIGCLLRLEPNLQAQMYRLTLRTSKEAVSQRLCELLSAQF [AP2A2]	-0.202	52.2	51.7	-0.139	-0.19	-0.622
MPCGEDWLSHPLGIVQGFFAQNGVNPDWEKKVIEYFKEKLKENNAPKWVPSLNEVPLHYLKPNSFVKFRCMIQDMFDPEFYMGVYETVNQNTKAHVLHFGKYRDVAECGPQQELDLNSPRNTTLERQTFYCVPVPGESTWVKEAYVNANQARVSPSTSYTPSRHKRSYEDDDDMDLQPNKQKDQHAGARQAGSVGGLQWCGEPKRLETEASTGQQLNSLNLSSPFDLNFPLPGEKGPACLVKVYEDWDCFKVNDILELYGILSVDPVLSILNNDERDASALLDPMECTDTAEEQRVHSPPASLVPRIHVILAQKLQHINPLLPACLNKEESKTCKFVSSFMSELSPVRAELLGFLTHALLGDSLAAEYLILHLISTVYTRRDVLPLGKFTVNLSGCPRNSTFTEHLYRIIQHLVPASFRLQMTIENMNHLKFIPHKDYTANRLVSGLLQLPSNTSLVIDETLLEQGQLDTPGVHNVTALSNLITWQKVDYDFSYHQMEFPCNINVFITSEGRSLLPADCQIHLQPQLIPPNMEEYMNSLLSAVLPSVLNKFRIYLTLLRFLEYSISDEITKAVEDDFVEMRKNDPQSITADDLHQLLVVARCLSLSAGQTTLSRERWLRAKQLESLRRTRLQQQKCVNGNEL [MCMBP]	0.324	49.2	50.1	-0.11	0.0238	2.25
MPDYLGADQRKTKEDEKDDKPIRALDEGDIALLKTYGQSTYSRQIKQVEDDIQQLLKKINELTGIKESDTGLAPPALWDLAADKQTLQSEQPLQVARCTKIINADSEDPKYIINVKQFAKFVVDLSDQVAPTDIEEGMRVGVDRNKYQIHIPLPPKIDPTVTMMQVEEKPDVTYSDVGGCKEQIEKLREVVETPLLHPERFVNLGIEPPKGVLLFGPPGTGKTLCARAVANRTDACFIRVIGSELVQKYVGEGARMVRELFEMARTKKACLIFFDEIDAIGGARFDDGAGGDNEVQRTMLELINQLDGFDPRGNIKVLMATNRPDTLDPALMRPGRLDRKIEFSLPDLEGRTHIFKIHARSMSVERDIRFELLARLCPNSTGAEIRSVCTEAGMFAIRARRKIATEKDFLEAVNKVIKSYAKFSATPRYMTYN [PSMC2]	0.358	53.2	52	-0.143	1.24	0.521
MPEEMDKPLISLHLVDSDSSLAKVPDEAPKVGILGSGDFARSLATRLVGSGFKVVVGSRNPKRTARLFPSAAQVTFQEEAVSSPEVIFVAVFREHYSSLCSLSDQLAGKILVDVSNPTEQEHLQHRESNAEYLASLFPTCTVVKAFNVISAWTLQAGPRDGNRQVPICGDQPEAKRAVSEMALAMGFMPVDMGSLASAWEVEAMPLRLLPAWKVPTLLALGLFVCFYAYNFVRDVLQPYVQESQNKFFKLPVSVVNTTLPCVAYVLLSLVYLPGVLAAALQLRRGTKYQRFPDWLDHWLQHRKQIGLLSFFCAALHALYSFCLPLRRAHRYDLVNLAVKQVLANKSHLWVEEEVWRMEIYLSLGVLALGTLSLLAVTSLPSIANSLNWREFSFVQSSLGFVALVLSTLHTLTYGWTRAFEESRYKFYLPPTFTLTLLVPCVVILAKALFLLPCISRRLARIRRGWERESTIKFTLPTDHALAEKTSHV [STEAP3]	-0.128	53.3	52.4	-0.0119	-0.269	-2.25
